Data from PMC9669019, “Molecular basis for integrin adhesion receptor binding to p21-activated kinase 4 (PAK4)” (Communications Biology, 2022).
Values joined by “and” are separate entries in the source; they are usually repeats but may differ in a detail not shown here. Equal entries are not always repeated. Ends that are not written are not given here. helical region = not defined here

Columns and labels:
[1] = target: T1, PAK4 catalytic domain, purified recombinant (PAK4-cat) (human, UniProt O96013 286-591); assay: cell-based or functional assay
T1 sequence (O96013 286-591): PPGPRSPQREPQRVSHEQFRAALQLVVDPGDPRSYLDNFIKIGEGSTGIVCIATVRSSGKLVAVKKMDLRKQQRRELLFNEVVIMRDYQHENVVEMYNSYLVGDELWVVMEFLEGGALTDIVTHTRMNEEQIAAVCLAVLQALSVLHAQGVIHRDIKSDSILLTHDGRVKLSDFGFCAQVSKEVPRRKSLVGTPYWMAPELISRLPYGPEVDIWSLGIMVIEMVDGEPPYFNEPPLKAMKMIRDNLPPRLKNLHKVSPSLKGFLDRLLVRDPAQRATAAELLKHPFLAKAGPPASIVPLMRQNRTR

[2] = target: T1, PAK4 catalytic domain, purified …; assay: pull-down; His-tagged β5 tails on Ni-NTA beads; varying concentrations of purified PAK4-cat in buffer X-T, 2 h, 4 °C; apparent affinity, one-site specific-binding model, three independent experiments; settings: both partners purified
[3] = target: T2, PAK4 catalytic domain (human, UniProt O96013 286-591); assay: ITC; Nano-ITC, 25 °C, PBS pH 7.4; 407 µM integrin β5^743–799 in the syringe titrated into 44 or 72 µM PAK4cat in the sample cell; PAK4cat pre-incubated with 5 mM MgCl2 and 1 mM AMP-PNP; 20 injections of 2.5 µL; settings: both partners purified
T2 construct: the GFP-PAK4-cat of the pull-downs is 302-591; The His tag is cleavable by TEV protease; also called PAK4 kinase domain; source: E. coli BL21-CodonPlus(DE3)RILP, purified (HisTrap, Resource Q, Superdex 200)
T2 sequence (O96013 286-591): as above

[4] = target: T1, PAK4 catalytic domain, purified …; assay: ITC; Nano-ITC, 25 °C, PBS pH 7.4; 407 µM integrin β5 743–799 in the syringe, 44 and 72 µM PAK4cat (pre-incubated with 5 mM MgCl2 and 1 mM AMP-PNP) in the cell; 20 injections of 2.5 µL; settings: both partners purified

B1: integrin β5 peptide, residues Glu760-Ser770 (peptide)
peptide: Ac-ERSRARYEMAS-NH2
Question: For B1, which “inhibition of PAK4 phosphorylation of a LIMK1 10mer peptide (…, 50 µM) in a radioactive in vitro kinase assay, β5 peptide 0–1024 µM, 1 mg/ml BSA: IC50” value [1] is on record?
Answer: 160 µM

B2: His-tagged recombinant model of the integrin β5 cytoplasmic tail (domain or fragment)
chain: {His‑tag-helical region-Gly4}-KLLVTIHDRREFAKFQSERSRARYEMASNPLYRKPISTHTVDFTFNKFNKSYNGTVD
modifications: not fully specified; reading uncertain
Question: B2 was tested. Which Kd [2] did it give?
Answer: ~1.8 µM

B3: 6xHis integrin β5 full-length cytosolic peptide (residues 743–799) (domain or fragment, UniProt P18084 743-799, looked up)
chain: KLLVTIHDRREFAKFQSERSRARYEMASNPLYRKPISTHTVDFTFNKFNKSYNGTVD
modifications: also: 6xHis tag, position not given here
notes: also called integrin β5 cytoplasmic tail
Question: Which results are given for B3?
Answer: Kd [3]: 5.1 µM and 4.8 µM; stoichiometry N [3]: 1.4 and 0.7

B4: 6xHis integrin β5 full-length cytosolic peptide (residues 743–799) (domain or fragment, UniProt P18084 743-799, looked up)
chain: KLLVTIHDRREFAKFQSERSRARYEMASNPLYRKPISTHTVDFTFNKFNKSYNGTVD
modifications: also: 6xHis tag, position not given here
notes: subcloned into a pET32 vector
Question: B4 was tested. Which Kd [4] did it give?
Answer: 4.95 ± 1.5 µM

Question: And the dH [4]?
Answer: -2.02 ± 0.179 kcal/mol

Question: And the “stoichiometry N” value [4]?
Answer: 1.05 ± 0.35
